Measured values published in patent US20260176378A1 (DYAX, published 2026).
Residue numbers refer to the chain shown, from its start. Values belong to the binder of their own block, whether it stands above or below them.

Biological target: T1, human plasma kallikrein (human, UniProt P03952 20-390; P03952 391-638)
T1 construct: two disulfide-linked chains; NP_000883.2; also called pKal; hpKal
Assay: ELISA, biotinylated pKal signal over streptavidin background

T1 sequence (P03952 20-390 limits assumed, chain 1 of 2): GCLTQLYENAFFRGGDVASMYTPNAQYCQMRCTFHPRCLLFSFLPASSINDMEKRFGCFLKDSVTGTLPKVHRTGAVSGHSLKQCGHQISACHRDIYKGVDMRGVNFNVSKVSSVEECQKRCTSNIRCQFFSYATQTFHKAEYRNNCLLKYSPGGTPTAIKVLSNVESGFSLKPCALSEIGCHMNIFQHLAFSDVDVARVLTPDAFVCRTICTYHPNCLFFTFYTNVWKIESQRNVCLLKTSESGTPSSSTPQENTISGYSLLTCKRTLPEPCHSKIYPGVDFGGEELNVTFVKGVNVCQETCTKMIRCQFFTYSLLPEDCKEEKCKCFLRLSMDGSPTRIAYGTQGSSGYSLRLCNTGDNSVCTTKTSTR
T1 sequence (P03952 391-638 limits assumed, chain 2 of 2): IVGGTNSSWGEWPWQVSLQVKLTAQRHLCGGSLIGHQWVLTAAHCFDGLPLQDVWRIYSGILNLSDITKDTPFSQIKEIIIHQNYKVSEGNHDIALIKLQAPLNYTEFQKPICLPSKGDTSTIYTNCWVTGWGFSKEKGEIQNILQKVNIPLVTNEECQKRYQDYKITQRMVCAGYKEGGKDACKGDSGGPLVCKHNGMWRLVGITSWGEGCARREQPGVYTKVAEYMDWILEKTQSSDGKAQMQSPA

B1: M9-D08 (Fab, V domains shown)
VH: EVQLLESGGGLVQPGGSLRLSCAASGFTFSWYKMMWVRQAPGKGLEWVSSIYPSGGWTNYADSVKGRFTISRDNSKNTLYLQMNSLRAEDTAVYYCTRGSPWGDDAFDIWGQGTMVTVSS
VL: DIQMTQSPSSLSASVGDRVTLTCRASRTISFYLNWYQQKAGKAPELLIYGGSSLHSGVPSRFSGSGSGTDFSLTISNLQPEDIAVYYCQQSFSSPWTFGQGTKVEIK
- ELISA (T/B): 35.9

B2: M8-E06 (Fab, V domains shown)
VH: EVQLLESGGGLVQPGGSLRLSCAASGFTFSHYFMTWVRQAPGKGLEWVSSIVPSGGMTQYADSVKGRFTISRDNSKNTLYLQMNSLRAEDTAVYYCARDSYSSSWFDIWGQGTMVTVSS
VL: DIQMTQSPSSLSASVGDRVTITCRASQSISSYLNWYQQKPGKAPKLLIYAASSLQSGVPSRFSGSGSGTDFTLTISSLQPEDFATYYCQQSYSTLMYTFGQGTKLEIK
- ELISA (T/B): 8.8

B3: M9-C10 (Fab, V domains shown)
VH: EVQLLESGGGLVQPGGSLRLSCAASGFTFSLYPMQWVRQAPGKGLEWVSSIGSSGGMTFYADSVKGRFTISRDNSKNTLYLQMNSLRAEDTAVYYCTREVGAAGFAFDIWGQGTMVTVSS
VL: DIQMTQSPSSLSASVGDRVTITCRASQGISSYLNWYQQKPGNAPNLLIYGASSLQSGVPSRFSGSGSGTDFTLTISSLQPEDFATYYCQESYSTLFTFGPGTTVEIK
- ELISA (T/B): 7.8

B6: M9-E04 (Fab, V domains shown)
VH: EVQLLESGGGLVQPGGSLRLSCAASGFTFSEYDMMWVRQAPGKGLEWVSSIGSSGGMTYYADSVKGRFTISRDNSKNTLYLQMNSLRAEDTAVYYCARDQVAAAAIDYWGQGTLVTVSS
VL: DIQMIQSPSSLSASVGDRVTITCRASQSISGYLNWYQQRSGKAPKLLIFAASNLQTGVPSRFSGSGSGTDFTLTINNLQPEDFATYYCQQSHTPPKTFGPGTKVDIK
- ELISA (T/B): 18.8

B11: M8-C04 (Fab, V domains shown)
VH: EVQLLESGGGLVQPGGSLRLSCAASGFTFSYYPMQWVRQAPGKGLEWVSYIYPSGGLTSYADSVKGRFTISRDNSKNTLYLQMNSLRAEDTAVYYCARLFYGSGSVGFEYWGQGTLVTVSS
VL: QSALTQPPSVSVSPGQTASITCSGDKLGDKYTSWHQQKPGQSPVLVIYQDSKRPSGIPERFSGSNSGNTATLTISGTQAMDEADYYCQAWDSSTVFGGGTRLTVL
- ELISA (T/B): 44.7

B12: M9-C08 (Fab, V domains shown)
VH: EVQLLESGGGLVQPGGSLRLSCAASGFTFSHYGMVWVRQAPGKGLEWVSYIVPSGGLTYYADSVKGRFTISRDNSKNTLYLQMNSLRAEDTAVYYCARVDYTGDGLGYWGQGTLVTVSS
VL: DIQMTQSPSSLSASVGDRVTITCRASQSISIYVNWYQQKPGKAPNLLIFAASSLQRGVPSRFSGSGSGADFTLTISSLQPEDFATYYCQQSFSTPLTFGGGTKVEIK
- ELISA (T/B): 10.9

B16: M9-A03 (Fab, V domains shown)
VH: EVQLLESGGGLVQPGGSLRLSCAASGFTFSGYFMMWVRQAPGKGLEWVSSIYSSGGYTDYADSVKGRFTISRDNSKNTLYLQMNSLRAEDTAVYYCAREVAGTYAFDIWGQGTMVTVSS
VL: DIQMTQSPSSLSASLGDRVTITCRASQNIDIYLNWYQQTPGKAPKLLIYGAYNLQSGVPSRFSGSGSGTDFTLTISSLQPEDFGTYYCQQSYGTPVFGQGTKLEIK
- ELISA (T/B): 14.4

B17: M8-H04 (Fab, V domains shown)
VH: EVQLLESGGGLVQPGGSLRLSCAASGFTFSGYWMGWVRQAPGKGLEWVSSISSSGGWTQYADSVKGRFTISRDNSKNTLYLQMNSLRAEDTATYYCARDDEIAAGGAFDIWGQGAMVTVSS
VL: DIQMTQSPSSLSASIGDRVTITCRASQYISTYLNWYEQKPGKAPKLLIYGTSSLQSGVPSRFSGSGSGTEFSLTISSLQPEDFATYYCQQSFTTPFTFGQGTKLEIK
- ELISA (T/B): 3.3

B20: M9-A08 (Fab, V domains shown)
VH: EVQLLESGGGLVQPGGSLRLSCAASGFTFSAYEMWWVRQAPGKGLEWVSYIGSSGGSTSYADSVKGRFTISRDNSKNTLYLQMNSLRAEDTAVYYCTGGNSSSFDAFDIWGQGTMVTVSS
VL: DIQMTQSPSSLSASVGDRVTVTCRASQRISTYLNWYQQKPGKAPKLLISGASSLQSGVPSRFSGSGSGTDFTLTISSLQPDDFATYYCQQSYNTPRTFGQGTKVEIR
- ELISA (T/B): 5.5

B21: M8-D05 (Fab, V domains shown)
VH: EVQLLESGGGLVQPGGSLRLSCAASGFTFSLYNMNWVRQAPGKGLEWVSSISPSGGFTDYADSVKGRFTISRDNSKNTLYLQMNSLRAEDTAVYYCARDLDLGILDYWGQGTLVTVSS
VL: DIQMTQSPSFVSASVGDRVTITCRASQDISSWLVWYQQKPGKGPKLLIYDASNLQSGVPSRFSGGGSGTHFTLTISSLQPEDFATYYCQQADGFPLTFGGGTKVEMK
- ELISA (T/B): 11.9

B22: M8-G09 (Fab, V domains shown)
VH: EVQLLESGGGLVQPGGSLRLSCAASGFTFSLYEMLWVRQAPGKGLEWVSVIYPSGGYTDYADSVKGRFTISRDNSKNTLYLQMNSLRAEDMAVYYCARSFSGFGEIDYWGQGTLVTVSS
VL: DIQMTQSPSSLSASVGDTVTITCRASQGVSYYLAWFQQKPGKAPKSLIYGASSLQSGVPSKFSGSGSGTVFTLTISSLQPDDFATYYCQQYNTYPPTFGQGTRLDIK
- ELISA (T/B): 28.2

B23: M6-G05 (Fab, V domains shown)
VH: EVQLLESGGGLVQPGGSLRLSCAASGFTFSRYRMVWVRQAPGKGLEWVSSIYPSGGMTAYADSVKGRFTISRDNSKNTLYLQMNSLRAEDTAVYYCARDAVGIGDAFDIWGQGTMVTVSS
VL: DIQMTQSPSSLSASVGDRVTITCRASQSISTYLNWYQLKPGKAPKLLIYNAFSMERGVPSTISGSGSGTDFTLTISSLQPEDFATYYCQQSYTTPTTFGQGTKVEIK
- ELISA (T/B): 18.5

Now from value to binder:

- ELISA (T/B): 33.7
B4: M10-A03 (Fab, V domains shown)
VH: EVQLLESGGGLVQPGGSLRLSCAASGFTFSPYPMQWVRQAPGKGLEWVSSISSSGGMTEYADSVKGRFTISRDNSKNTLYLQMNSLRAEDTAVYYCARDDYGGKGGAFDIWGQGTMVTVSS
VL: DIQMTQSPSSLSASVGDRVTITCRASQRISFYLNWFQQKPGKAPNLLIYGASSLQSGVPSRFSGSGSGTDFTLTISSLQPKDFGTYYCQQTFSTPNTFGQGTKLEIK

- ELISA (T/B): 6.4
B5: M10-D11 (Fab, V domains shown)
VH: EVQLLESGGGLVQPGGSLRLSCAASGFTFSAYPMNWVRQAPGKGLEWVSRISSSGGNTSYADSVKGRFTISRDNSKNTLYLQMNSLRAEDTAVYYCALGYLGYWGQGTLVTVSS
VL: not shown

- ELISA (T/B): 20.8
B7: M10-A12 (Fab, V domains shown)
VH: EVQLLESGGGLVQPGGSLRLSCAASGFTFSLYLMHWVRQAPGKGLEWVSSIYSSGGFTTYADSVKGRFTISRDNSKNTLYLQMNSLRAEDTAVYYCARDTDYGMDVWGQGTTVTVSS
VL: DIQMTQSPLSLSAFVGDRVTITCRASRDISVYLNWYQLKSGKAPKLLIYGASSLQSGVPSRFSGSGSGTDFTLTITSLQPEDFATYYCQQSYSIPFTFGGGTKVETK

- ELISA (T/B): 10.9
B8: M9-F08 (Fab, V domains shown)
VH: EVQLLESGGGLVQPGGSLRLSCAASGFTFSPYAMTWVRQAPGKGLEWVSVIYPSGGFTDYADSVKGRFTISRDNSKNTLYLQMNSLRAEDTAMYYCARASGSYLDAFDIWGQGTMVTVSS
VL: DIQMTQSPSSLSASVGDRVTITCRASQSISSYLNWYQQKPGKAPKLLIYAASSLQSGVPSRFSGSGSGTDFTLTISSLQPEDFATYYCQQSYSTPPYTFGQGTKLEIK

- ELISA (T/B): 4.4
B9: M9-H03 (Fab, V domains shown)
VH: EVQLLESGGGLVQPGGSLRLSCAASGFTFSWYSMGWVRQAPGKGLEWVSYIVPSGGYTMYADSVKGRFTISRDNSKNTLYLQMNSLRAEDTAVYYCARDPGVSYYYYGMDVWGQGTTVTVSS
VL: QYELTQAPSVSVAPGQTASITCSGDKLGNRYTSWYQQKPGQSPVLVIFQDNKRPSGIPERFSGSNSGNTATLTISGTQAMDEADYYCQALDSNTYVFGTGTKVTVL

- ELISA (T/B): 16.1
B10: M9-H04 (Fab, V domains shown)
VH: EVQLLESGGGLVQPGGSLRLSCAASGFTFSAYTMWWVRQAPGKGLEWVSSIWPSGGSTFYADSVKGRFTISRDNSKNTLYLQMNSLRAEDTAVYYCARTYDSSAGEVDYWGQGTLVTVSS
VL: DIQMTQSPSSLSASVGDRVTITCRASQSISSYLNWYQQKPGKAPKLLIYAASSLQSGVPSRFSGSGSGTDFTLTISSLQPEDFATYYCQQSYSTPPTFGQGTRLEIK

- ELISA (T/B): 14.1
B13: M10-B09 (Fab, V domains shown)
VH: EVQLLESGGGLVQPGGSLRLSCAASGFTFSWYEMSWVRQAPGKGLEWVSRIWPSGGVTMYADSVKGRFTISRDNSKNTLYLQMNSLRAEDTAVYYCTRTSITTVGMDVWGQGTTVTVSS
VL: DIQMTQSPSSLSASVGDGVTITCRASQSISTYLNWYQQRPGKAPKLLIYGASSLQSGVPSRFSGSGSGTDFTLTISSLQREDFATYYCQQSFSTPWTFGQGTRVEIK

- ELISA (T/B): 5.3
B14: M10-C11 (Fab, V domains shown)
VH: EVQLLESGGGLVQPGGSLRLSCAASGFTFSMYPMMWVRQAPGKGLEWVSYISPSGGMTDYADSVKGRFTISRDNSKNTLYLQMNSLRAEDMAVYYCARVAGSSDAFDIWGQGTMVTVSS
VL: DIQMTQSPSSLSASVGDRVTITCRASQSISIYLNWYQQKPEKAPKLLIFAASTLQSGVPSRFSGSGSGTDFTLTISNLQPEDFATYYCQQSHSIPPTFGLGTKVEVK

- ELISA (T/B): 8.4
B15: M9-F10 (Fab, V domains shown)
VH: EVQLLESGGGLVQPGGSLRLSCAASGFTFSDYDMEWVRQAPGKGLEWVSSISPSGGSTIYADSVKGRFTISRDNSKNTLYLQMNSLRAEDTAVYYCARQGLLTAFDIWGQGTMVTVSS
VL: DIQMTQSPSSLSASVGDRVTITCRASQSINTYLNWYQQKPGKAPKVLIHAASTLESGVPSRFSGSGSGTDFTLTISSLQPEDFATYYCQQSYSTPYTFGQGTKLEVR

- ELISA (T/B): 4.8
B18: M9-G08 (Fab, V domains shown)
VH: EVQLLESGGGLVQPGGSLRLSCAASGFTFSYYTMLWVRQAPGKGLEWVSSIYPSGGFTMYADSVKGRFTISRDNSKNTLYLQMNSLRAEDTAVYYCARVDTAMAMIDYWGQGTLVTVSS
VL: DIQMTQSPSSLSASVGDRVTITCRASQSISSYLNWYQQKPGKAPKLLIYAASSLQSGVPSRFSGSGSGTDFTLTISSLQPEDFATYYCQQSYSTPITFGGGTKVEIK

- ELISA (T/B): 7
B19: M9-F09 (Fab, V domains shown)
VH: EVQLLESGGGLVQPGGSLRLSCAASGFTFSSYPMGWVRQAPGKGLEWVSRISSSGGMTIYADSVKGRFTISRDNSKNTLYLQMNSLRAEDTAVYYCARDDWNVGMDVWGQGTTVTVSS
VL: DIQMTQSPSSLSASVGDRVTITCRASQSISSYLNWYQQKPGKAPKLLIYAASSLQSGVPSKFSGSGSGTDYTLTISSLQPEDFATYYCQQTYTTPWTFGQGTKVEIK

- ELISA (T/B): 3.5
B24: M9-H02 (Fab, V domains shown)
VH: B23 VH with R31A, R33M, V35I, S50V, M57V, A59M, D99G, A100T, I103A, G104S
VL: DIQMTQSPSSLSASVGDRVIITCRASRSIATYLNWYQQKPGKAPNLLIFGASTLQSGVPSRFSGSGSGTDFTLTISDLQPEDFATYYCQQSFSDPYTFGQGTNLEMK
